Legend:
[1] = Storage stability at different pH values, residual DON transformation activity; format: biochemical; conditions: storage at 30° C.
Experimental: (§1) To determine the transformation of DON to epi-THS by Akr I-III, described herein, the following assay was performed. An assay buffer was prepared containing 40 ppm DON, 1 mM NADPH in Teorell Stenhagen (TS) buffer, pH 6.0 (Östling and Virtama, Acta Physiologica Scandinavica, 1946, 11:4, 289-293). Tubes containing the assay buffer were transferred in a heating block at 30° C. The reaction was started by addition of Akr I-III to a final concentration of 200 nM in a final reaction volume of 200 μL. Samples were taken before reaction start, and 2, 5, 10, 15 and 20 min after reaction start. DON transformation reactions in these samples were stopped by mixing with absolute methanol at a 1:2 ratio, followed by a 1:100 dilution with 40% methanol. The concentrations of DON and epi-THS in the samples were determined with liquid chromatography-mass spectrometry (LC-MS) on a Sciex 5500 triple quadrupole mass spectrometer coupled to Agilent 1290 series UHPLC system, using the following MS parameters: Acquisition duration: 4 min; Scan Type: MRM (MRM); Polarity: Negative; Ion Source: Turbo Spray.
The storage stability of Akr I-III at different pH values was tested by incubating 1 μM enzyme in TS buffer solutions with a pH of 3.0-10.0 for 4 h at 30° C. in standard 1.5 ml Eppendorf tubes. Every hour, a DON transformation assay was conducted as described in Example 3. The starting activity at time 0 min was set to 100% and the relative residual activities were determined throughout the incubation. For the DON transformation assays, 80 μl of the storage solution were added to an assay reaction with a final volume of 400 μl, which corresponds to a 1:5 dilution of the storage solution. Akr I retained more than 93% activity during 4 hours at 30° C. from pH 4.0-10.0. Akr II retained 30% to 93% activity during 4 hours at 30° C. from pH […] retained 27% to 85% activity during 4 hours at 30° C. from pH 4.0-9.0. Akr I-III retained more than 40% of their activity for 4 hours at 30° C. from pH 4.0 to pH 8.0.

[2] = Storage stability in storage buffer at different temperatures, residual DON transformation activity; format: biochemical; conditions: storage buffer
Experimental: as §1
The storage stability of Akr I-III was tested by incubation of 5 μM enzyme solutions in storage buffer (50 mM Tris pH 9.0, 0.5M NaCl, 50% Glycerol), for 60 min in a thermocycler (Mastercycler, Eppendorf) set to gradient mode from 30° C. to 50° C. Throughout the incubation, samples were removed and placed on ice until DON transformation assays were performed as described in Example 3 to determine enzyme activities. The starting activity at time 0 min was set to 100% and the relative residual activities were determined throughout the incubation. Akr I retained more than 33% activity during 60 min in pH 6 at temperatures from 29.9° C. to 46.0° C. Akr III retained 15% to 90% activity during 20 min in pH 6 at temperatures from 29.9° C. to 40.7° C.

B1: Akr II: artificial amino acid sequence, variant of a wild type aldo-keto reductase (protein)
chain: MRTTEIAQGLKVSNLCIGAGPLGGMPTAFGYDVSEERGIATVQAVFDSPINFMDTSSEYGGSEARIGKVIREGLMPKGFVISSKADAEGEGVGRRGDFSAKQVRASFELSLERLGLTHLDVYFLHDPEKFPFEQVMARGGAMEELLRLKDEGLVGLVGVAGGDVLEMARYVDTGSLDILLNYGRYTLLDRSADSLITKVSDAGMAFLNAGPYASGLLAAPRGGSAWYQYAPPDATALQAVDQLHELCESFDVSLRSVALQFSMRDPRITSTVVGLSRPERVRALLDDEAAEIPAELWEQLPAPLNGDIVLPG
modifications: ArkII
Relative DON-transformation activity ([1]; pH 3.0, 0 h (starting activity set to 100%)): 100.0% | Relative DON-transformation activity ([1]; pH 3.0, 1 h): 34.5% | Relative DON-transformation activity ([1]; pH 3.0, 2 h): 1.1% | Relative DON-transformation activity ([1]; pH 3.0, 3 h): 0.0% | Relative DON-transformation activity ([1]; pH 3.0, 4 h): 0.0% | Relative DON-transformation activity ([1]; pH 4.0, 0 h (starting activity set to 100%)): 100.0% | Relative DON-transformation activity ([1]; pH 4.0, 1 h): 99.3% | Relative DON-transformation activity ([1]; pH 4.0, 2 h): 96.6% | Relative DON-transformation activity ([1]; pH 4.0, 3 h): 87.1% | Relative DON-transformation activity ([1]; pH 4.0, 4 h): 89.0% | Relative DON-transformation activity ([1]; pH 5.0, 0 h (starting activity set to 100%)): 100.0% | Relative DON-transformation activity ([1]; pH 5.0, 1 h): 100.1% | Relative DON-transformation activity ([1]; pH 5.0, 2 h): 99.8% | Relative DON-transformation activity ([1]; pH 5.0, 3 h): 99.3% | Relative DON-transformation activity ([1]; pH 5.0, 4 h): 92.4% | Relative DON-transformation activity ([1]; pH 6.0, 0 h (starting activity set to 100%)): 100.0% | Relative DON-transformation activity ([1]; pH 6.0, 1 h): 77.3% | Relative DON-transformation activity ([1]; pH 6.0, 2 h): 85.1% | Relative DON-transformation activity ([1]; pH 6.0, 3 h): 77.6% | Relative DON-transformation activity ([1]; pH 6.0, 4 h): 61.8% | Relative DON-transformation activity ([1]; pH 7.0.0, 0 h (starting activity set to 100%)): 100.0% | Relative DON-transformation activity ([1]; pH 7.0.0, 1 h): 79.6% | Relative DON-transformation activity ([1]; pH 7.0.0, 2 h): 64.5% | Relative DON-transformation activity ([1]; pH 7.0.0, 3 h): 56.9% | Relative DON-transformation activity ([1]; pH 7.0.0, 4 h): 57.4% | Relative DON-transformation activity ([1]; pH 8.0, 0 h (starting activity set to 100%)): 100.0% | Relative DON-transformation activity ([1]; pH 8.0, 1 h): 85.1% | Relative DON-transformation activity ([1]; pH 8.0, 2 h): 68.3% | Relative DON-transformation activity ([1]; pH 8.0, 3 h): 53.2% | Relative DON-transformation activity ([1]; pH 8.0, 4 h): 40.9% | Relative DON-transformation activity ([1]; pH 9.0.0, 0 h (starting activity set to 100%)): 100.0% | Relative DON-transformation activity ([1]; pH 9.0.0, 1 h): 76.5% | Relative DON-transformation activity ([1]; pH 9.0.0, 2 h): 54.7% | Relative DON-transformation activity ([1]; pH 9.0.0, 3 h): 36.1% | Relative DON-transformation activity ([1]; pH 9.0.0, 4 h): 29.9% | Relative DON-transformation activity ([1]; pH 10.0, 0 h (starting activity set to 100%)): 100.0% | Relative DON-transformation activity ([1]; pH 10.0, 1 h): 54.4% | Relative DON-transformation activity ([1]; pH 10.0, 2 h): 37.7% | Relative DON-transformation activity ([1]; pH 10.0, 3 h): 13.9% | Relative DON-transformation activity ([1]; pH 10.0, 4 h): 7.2% | Relative DON transformation activity ([2]; 29.9° C., 0 min (starting activity set to 100%)): 100.00% | Relative DON transformation activity ([2]; 29.9° C., 5 min): 95.8% | Relative DON transformation activity ([2]; 29.9° C., 10 min): 91.6% | Relative DON transformation activity ([2]; 29.9° C., 20 min): 90.3% | Relative DON transformation activity ([2]; 29.9° C., 35 min): 89.4% | Relative DON transformation activity ([2]; 29.9° C., 50 min): 84.1% | Relative DON transformation activity ([2]; 29.9° C., 60 min): 86.8% | Relative DON transformation activity ([2]; 35.3° C., 0 min (starting activity set to 100%)): 100.00% | Relative DON transformation activity ([2]; 35.3° C., 5 min): 91.9% | Relative DON transformation activity ([2]; 35.3° C., 10 min): 92.5% | Relative DON transformation activity ([2]; 35.3° C., 20 min): 86.0% | Relative DON transformation activity ([2]; 35.3° C., 35 min): 77.4% | Relative DON transformation activity ([2]; 35.3° C., 50 min): 49.6% | Relative DON transformation activity ([2]; 35.3° C., 60 min): 46.4% | Relative DON transformation activity ([2]; 37.9° C., 0 min (starting activity set to 100%)): 100.00% | Relative DON transformation activity ([2]; 37.9° C., 5 min): 90.5% | Relative DON transformation activity ([2]; 37.9° C., 10 min): 80.2% | Relative DON transformation activity ([2]; 37.9° C., 20 min): 65.0% | Relative DON transformation activity ([2]; 37.9° C., 35 min): 38.1% | Relative DON transformation activity ([2]; 37.9° C., 50 min): 10.6% | Relative DON transformation activity ([2]; 37.9° C., 60 min): 6.2% | Relative DON transformation activity ([2]; 40.7° C., 0 min (starting activity set to 100%)): 100.00% | Relative DON transformation activity ([2]; 40.7° C., 5 min): 61.5% | Relative DON transformation activity ([2]; 40.7° C., 10 min): 56.1% | Relative DON transformation activity ([2]; 40.7° C., 20 min): 15.5% | Relative DON transformation activity ([2]; 40.7° C., 35 min): 11.3% | Relative DON transformation activity ([2]; 40.7° C., 50 min): 0.00% | Relative DON transformation activity ([2]; 40.7° C., 60 min): 0.00% | Relative DON transformation activity ([2]; 43.4° C., 0 min (starting activity set to 100%)): 100.00% | Relative DON transformation activity ([2]; 43.4° C., 5 min): 39.2% | Relative DON transformation activity ([2]; 43.4° C., 10 min): 34.9% | Relative DON transformation activity ([2]; 43.4° C., 20 min): 21.9% | Relative DON transformation activity ([2]; 43.4° C., 35 min): 7.1% | Relative DON transformation activity ([2]; 43.4° C., 50 min): 0.00% | Relative DON transformation activity ([2]; 43.4° C., 60 min): 0.00% | Relative DON transformation activity ([2]; 46.0° C., 0 min (starting activity set to 100%)): 100.00% | Relative DON transformation activity ([2]; 46.0° C., 5 min): 2.9% | Relative DON transformation activity ([2]; 46.0° C., 10 min): 4.7% | Relative DON transformation activity ([2]; 46.0° C., 20 min): 0.00% | Relative DON transformation activity ([2]; 46.0° C., 35 min): 2.7% | Relative DON transformation activity ([2]; 46.0° C., 50 min): 0.00% | Relative DON transformation activity ([2]; 46.0° C., 60 min): 0.00% | Relative DON transformation activity ([2]; 50.8° C., 0 min (starting activity set to 100%)): 100.00% | Relative DON transformation activity ([2]; 50.8° C., 5 min): 4.7% | Relative DON transformation activity ([2]; 50.8° C., 10 min): 5.7% | Relative DON transformation activity ([2]; 50.8° C., 20 min): 9.4% | Relative DON transformation activity ([2]; 50.8° C., 35 min): 2.4% | Relative DON transformation activity ([2]; 50.8° C., 50 min): 0.00% | Relative DON transformation activity ([2]; 50.8° C., 60 min): 0.00%
